Where “and” joins values, the source holds several entries; their conditions need not be identical. Identical values can stand only once.
Molecular target: T1, human integrin avb8 (human)
T1 chain 1: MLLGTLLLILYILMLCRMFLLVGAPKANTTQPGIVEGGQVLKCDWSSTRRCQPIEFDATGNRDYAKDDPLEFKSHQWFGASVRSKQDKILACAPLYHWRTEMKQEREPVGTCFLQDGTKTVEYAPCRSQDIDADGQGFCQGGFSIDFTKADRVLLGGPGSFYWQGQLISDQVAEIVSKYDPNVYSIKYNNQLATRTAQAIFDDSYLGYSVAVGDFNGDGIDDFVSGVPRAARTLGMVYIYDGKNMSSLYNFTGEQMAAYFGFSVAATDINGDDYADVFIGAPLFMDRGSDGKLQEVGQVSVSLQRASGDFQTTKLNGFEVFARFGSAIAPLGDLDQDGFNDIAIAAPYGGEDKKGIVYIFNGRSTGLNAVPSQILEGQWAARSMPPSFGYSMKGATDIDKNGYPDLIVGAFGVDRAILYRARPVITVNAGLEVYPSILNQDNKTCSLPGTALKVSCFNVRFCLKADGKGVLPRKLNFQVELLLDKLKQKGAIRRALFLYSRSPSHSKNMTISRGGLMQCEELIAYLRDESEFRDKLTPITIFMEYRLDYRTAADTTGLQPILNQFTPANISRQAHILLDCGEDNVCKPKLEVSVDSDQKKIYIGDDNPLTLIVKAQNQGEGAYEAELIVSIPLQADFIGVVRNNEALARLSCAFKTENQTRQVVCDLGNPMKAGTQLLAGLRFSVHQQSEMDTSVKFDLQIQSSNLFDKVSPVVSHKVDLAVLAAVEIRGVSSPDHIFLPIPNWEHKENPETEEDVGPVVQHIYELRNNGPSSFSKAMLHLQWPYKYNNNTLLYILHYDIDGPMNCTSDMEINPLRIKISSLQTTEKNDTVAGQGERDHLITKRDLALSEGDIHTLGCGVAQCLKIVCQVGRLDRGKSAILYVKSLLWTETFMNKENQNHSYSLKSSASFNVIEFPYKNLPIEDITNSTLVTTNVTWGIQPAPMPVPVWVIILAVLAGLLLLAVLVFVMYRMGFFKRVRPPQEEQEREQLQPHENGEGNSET
T1 chain 2: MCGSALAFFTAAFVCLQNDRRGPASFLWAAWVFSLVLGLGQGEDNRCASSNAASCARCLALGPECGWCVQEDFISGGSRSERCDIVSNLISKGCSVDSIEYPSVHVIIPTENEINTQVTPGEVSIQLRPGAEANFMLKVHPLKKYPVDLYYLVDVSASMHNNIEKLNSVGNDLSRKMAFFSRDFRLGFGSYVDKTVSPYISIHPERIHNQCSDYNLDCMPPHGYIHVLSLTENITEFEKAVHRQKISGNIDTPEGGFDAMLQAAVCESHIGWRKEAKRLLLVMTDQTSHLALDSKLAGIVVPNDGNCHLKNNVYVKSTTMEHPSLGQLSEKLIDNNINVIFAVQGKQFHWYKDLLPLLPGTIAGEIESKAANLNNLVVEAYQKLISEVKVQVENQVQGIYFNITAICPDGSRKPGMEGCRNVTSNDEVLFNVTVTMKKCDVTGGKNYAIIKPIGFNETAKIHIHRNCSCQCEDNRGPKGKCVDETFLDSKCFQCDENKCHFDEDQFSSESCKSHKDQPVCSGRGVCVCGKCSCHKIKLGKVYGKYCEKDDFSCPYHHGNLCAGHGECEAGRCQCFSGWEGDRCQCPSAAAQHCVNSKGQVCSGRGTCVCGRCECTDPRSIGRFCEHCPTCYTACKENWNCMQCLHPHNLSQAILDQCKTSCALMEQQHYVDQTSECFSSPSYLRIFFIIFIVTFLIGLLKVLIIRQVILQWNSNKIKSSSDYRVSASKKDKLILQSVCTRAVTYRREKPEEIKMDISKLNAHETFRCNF
Assay: SPR 25C

B1: ADWA11 VH05/VK01 (VH05-2_VK01) Fab (antibody, V domains shown)
VH: EVQLVESGGGLVQPGGSLRLSCAASGFNIKDYYMNWVRQAPGKGLEWVGWIDPDNGNTIYDPKFQGRFTISADTSKNSAYLQMNSLRAEDTAVYYCARRLLMDYWGQGTLVTVSS
VL: DIQMTQSPSSLSASVGDRVTITCRSTKSLLHFNGNTYLFWYQQKPGKAPKRLIYYMSNLASGVPSRFSGSGSGTDFTLTISSLQPEDFATYYCMQSLEYPFTFGQGTKVEIK
**Q.** With B1 as the binder, how does the Kd read?
**A.** The Kd was 209 pM and 118 pM.

B2: ADWA11 2.4 Fab (antibody, V domains shown)
VH: EVQLVESGGGLVQPGGSLRLSCAASGFNIKDYYMNWVRQAPGKGLEWVGWIDPDQGNTIYEPKFQGRFTISADTSKNSAYLQMNSLRAEDTAVYYCARRLLMDYWGQGTLVTVSS
VL: DIQMTQSPSSLSASVGDRVTITCRSTKSLSHFNGNTYLFWYQQKPGKAPKRLIYYMSSLASGVPSRFSGSGSGTDFTLTISSLQPEDFATYYCQQSLEYPFTFGGGTKVEIK
**Q.** How did the Kd turn out when B2 was run?
**A.** The Kd was under 200 pM.

B3: Mouse hybridoma ADWA-11 Fab (antibody, V domains shown)
VH: EVQLQQSGAELVRPGAFVKLSCKASGFNIKDYYMNWVLQRPEQGLEWIGWIDPDNGNTIYDPKFQGKASITADTSSNTAYLQLSSLTSEDTAVYYCARRLLMDYWGQGTSVTVSS
VL: DIVMTQAAPSVPVTPGESVSISCRSTKSLLHFNGNTYLFWFLQRPGQSPQRLIYYMSNLASGVPDRFSGRGSGTDFTLRISRVEAEDVGVYYCMQSLEYPFTFGTGTKLEIK
**Q.** Which Kd does the source give for B3 here?
**A.** Its Kd is 536 pM.
